According to the supplement of paper PMC10126150:
± gives the standard deviation of the averaged measurements.

system: ATP; assay: switch fluorescence ratio, 500 uM ATP over buffer (Cy3 cluster intensity, sum of 5 cycles each) (fold (ratio)); higher = stronger signal-on switching upon ATP binding; sequences stand for … in TCGTCGGCAGCGTCAGATGTGTATAAGAGACAGTTTTTTTTTTTTTTTTTTTTTTTTT…TC; conditions: aptamer strand: ATP DNA aptamer (quencher-CACCTGGGGGAGTATTGCGGAGGAAGG + anchor), 100 nM annealed; ATP concentration: 500 uM
How it was run: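 Switching-strand clusters labelled with Cy3 on a modified Illumina MiSeq flow-cell were annealed to 100 nM quencher-labelled ATP aptamer, imaged in selection buffer, and re-imaged after 15 min with 500 uM ATP at 22 °C. This was done over five cycles with NaOH stripping and re-annealing in between. The fluorescence ratio is summed target-cycle over summed buffer-cycle Cy3 intensity per cluster, averaged per switch-domain sequence, excluding clusters outside 100-1000 RFU.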
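Further: ATP exposure 15 min at 22 °C before imaging.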

| Sequence | switch fluorescence ratio |
| --- | --- |
| TTTTACATTT | 1 ± 0.057 |
| TTAGGGGATG | 1.026 ± 0.0098 |
| TGCACCTTGG | 1.014 ± 0.0099 |
| AGATGACGTT | 1.01 ± 0.046 |
| TTCTAGGCGG | 1.03 ± 0.029 |
| GGATTTATAA | 0.9961 ± 0.0011 |
| TTTTGAAATG | 0.965 ± 0.017 |
| CGATTTAAGG | 0.9947 ± 0.0063 |
| GATAACATAC | 1.368 ± 0.0047 |
| GATAATATGG | 0.9814 ± 0.0094 |
| GATAGTATTT | 1.005 ± 0.0066 |
| CGATTGGGAC | 1.01 ± 0.02 |
| TTCGGGAAAA | 0.982 ± 0.016 |
| GAACGAAGCA | 1.84 ± 0.051 |
| TTTTTGCCGC | 1.02 ± 0.012 |
| TAGGGGTTTG | 0.979 ± 0.027 |
| ACACTAGGTT | 1.06 ± 0.051 |
| GGTAGGTGTT | 1.04 ± 0.037 |
| TGGTTGTTT | 0.9856 ± 0.0018 |
| TCGGGGAGAA | 0.992 ± 0.073 |
| TGCGAGGCGT | 0.997 ± 0.021 |
| ACGCGGGGAG | 1.01 ± 0.034 |
| TGCGTGTGTC | 1.05 ± 0.024 |
| TTGTGTTTTG | 1.16 ± 0.39 |
| AACCCTTTGC | 1.04 ± 0.016 |
| AGTTGGAGCG | 1.026 ± 0.0041 |

| Sequence | switch fluorescence ratio |
| --- | --- |
| ATTTCGTTTC | 1.05 ± 0.1 |
| TGATTAATGT | 0.9996 ± 0.0099 |
| GAGACGCTTA | 1.069 ± 0.0064 |
| GGGGGACCCA | 0.982 ± 0.06 |
| CAGGTTTGTG | 1.01 ± 0.018 |
| TCTTTTTGGT | 0.992 ± 0.018 |
| TTGGCCGCAC | 2.67 ± 0.049 |
| CGGGTTTTCG | 0.988 ± 0.018 |
| TAGACTCGGT | 0.993 ± 0.053 |
| AAGGTTGATA | 0.988 ± 0.032 |
| CGTATTTTTT | 1.01 ± 0.032 |
| TTTGGGGAAA | 1.16 ± 0.42 |
| TATAATTTCT | 1.04 ± 0.018 |
| TCAGGAGTCG | 1.02 ± 0.06 |
| CTAGGCAGTT | 1.01 ± 0.012 |
| TCGGATTGGC | 0.985 ± 0.034 |
| ATTGGCATGC | 0.996 ± 0.027 |
| AGGGGATCGC | 0.996 ± 0.034 |
| TCGTGGCGGA | 0.979 ± 0.011 |
| GTCGGAGAGC | 1.04 ± 0.039 |
| ATGCATGTGC | 0.983 ± 0.01 |
| AATGTTATCT | 0.994 ± 0.057 |
| TTGGGACTTC | 1.03 ± 0.012 |
| AGGTGGTGCT | 0.991 ± 0.056 |
| CACTGGGCGA | 3.28 ± 3.2 |
| TAGGGGTTCT | 1.01 ± 0.061 |

| Sequence | switch fluorescence ratio |
| --- | --- |
| GAAAGGGTTG | 0.968 ± 0.035 |
| GGGGGCGAAT | 1.01 ± 0.011 |
| ATGCGGGGGC | 1.045 ± 0.0046 |
| GCGGGGTCTG | 0.985 ± 0.04 |
| CGAGGGGGCC | 0.97 ± 0.052 |
| AATTGTAGGC | 0.976 ± 0.036 |
| GTGTGAAAGC | 1.011 ± 0.0035 |
| GAGTGTGGGC | 1.01 ± 0.099 |
| TAAAGTAGAT | 0.988 ± 0.027 |
| GATGAGGGCG | 1.14 ± 0.23 |
| AAATTGGACG | 1.08 ± 0.04 |
| CATATTCCTA | 0.999 ± 0.035 |
| GCAACGGGTT | 1.16 ± 0.21 |
| GATCGTCTGC | 0.925 ± 0.035 |
| TAATCAATGT | 0.994 ± 0.011 |
| TTGCGTAAGG | 1.06 ± 0.056 |
| AATCCAAAAG | 1.026 ± 0.0043 |
| GATAGGTTCG | 0.983 ± 0.016 |
| ACATTCTACG | 1.25 ± 0.017 |
| TTGTGATGTG | 0.986 ± 0.023 |
| GTATAATTCA | 0.975 ± 0.028 |
| GCCCATTTCT | 1.03 ± 0.039 |
| TTGAGGAATA | 0.9922 ± 0.008 |
| TGATTGGGGG | 0.989 ± 0.031 |
| CTAGGCTGTA | 1 ± 0.021 |
| TTTCGGGGTT | 1.04 ± 0.1 |

| Sequence | switch fluorescence ratio |
| --- | --- |
| AGGGGGGCGT | 1.01 ± 0.016 |
| TTGAACGGTG | 1.03 ± 0.047 |
| TTAAAGACGG | 1.06 ± 0.11 |
| TAGGTCTAGT | 0.98706 ± 0.0005 |
| GATCATGTTT | 0.98194 ± 0.00037 |
| CGCTTGTCAC | 1.18 ± 0.021 |
| TTTCAGTTCC | 1.08 ± 0.002 |
| AGATACGAGG | 1.03 ± 0.011 |
| ACTGTGGGGA | 1.01 ± 0.013 |
| TAGTTCGGTT | 1.01 ± 0.016 |
| AGTTAAGGGA | 0.991 ± 0.062 |
| ATGTATTCTT | 0.987 ± 0.052 |
| TTAGACACAA | 1.01 ± 0.046 |
| TGGGTAGGAT | 1.02 ± 0.018 |
| GCGGTTTCCT | 1.02 ± 0.037 |
| AGGAGCATTT | 1.04 ± 0.045 |
| CTAGTTAAGC | 0.9892 ± 0.0035 |
| AAAAGGGA | 0.982 ± 0.046 |
| AAGAGTGTGG | 1.02 ± 0.058 |
| ATATTAGGGC | 1.02 ± 0.015 |
| CAGTAAAAAG | 1.03 ± 0.025 |
| TTAGACTCTG | 1.05 ± 0.071 |
| ATGTGTTACG | 1.05 ± 0.012 |
| GGGCATAAAG | 1.02 ± 0.025 |
| AATTTGGTCG | 0.978 ± 0.03 |
| TTGGGCGGCG | 0.982 ± 0.074 |

| Sequence | switch fluorescence ratio |
| --- | --- |
| ACTATGGTTA | 0.997 ± 0.055 |
| CTTATAGCAT | 1.096 ± 0.0085 |
| TGGGTGGAGA | 1.02 ± 0.021 |
| TAGCCCTGCT | 1.033 ± 0.0087 |
| AGGCCGGGGT | 1.01 ± 0.055 |
| TAAGAGGGAG | 0.966 ± 0.036 |
| TGCAGCAGGT | 1.18 ± 0.025 |
| TTGGGGTGCT | 0.992 ± 0.035 |
| GGGGTAAGAC | 1.02 ± 0.036 |
| TTTAGTTCCG | 0.935 ± 0.025 |
| GTGGTACGGA | 1.0044 ± 0.00029 |
| GCGTGCGGGA | 1.02 ± 0.017 |
| AAACAGATAA | 1.04 ± 0.084 |
| TGCATTTTGC | 1.08 ± 0.023 |
| GTTGGGGAAT | 1.04 ± 0.093 |
| AGTTAACGGT | 1.18 ± 0.19 |
| TAGTATGTTT | 1.004 ± 0.0061 |
| GAGGCTAGTT | 0.9936 ± 0.0047 |
| CGGTGGGACG | 1.02 ± 0.022 |
| TTAGAGTGCA | 1.02 ± 0.019 |
| GCCCCGGGGG | 1.1 ± 0.046 |
| GGGGCGGCGG | 0.962 ± 0.066 |
| GACTTATTAT | 1.001 ± 0.0041 |
| TTGTAGGATA | 0.994 ± 0.012 |
| TTGGGTTTGT | 0.997 ± 0.017 |
| ACGGTTGGT | 1.02 ± 0.012 |

| Sequence | switch fluorescence ratio |
| --- | --- |
| TTCCTTCGAT | 1.51 ± 0.062 |
| TTCTGATGGT | 0.99 ± 0.021 |
| CTGAGCTGCA | 1.12 ± 0.036 |
| GACTTATTTA | 1.01 ± 0.043 |
| AGTCTGAGAC | 1.013 ± 0.0089 |
| TTTACGTAGT | 1.03 ± 0.019 |
| TTGGGATTGT | 0.989 ± 0.014 |
| TTGACGGGCT | 1.05 ± 0.043 |
| TATTCAGTGC | 1.01 ± 0.046 |
| TGGTTTGATC | 1.01 ± 0.026 |
| AAGAGCGAGG | 0.945 ± 0.036 |
| TCTAAGTCCA | 0.989 ± 0.068 |
| CACTCTCTGA | 0.969 ± 0.045 |
| AGGGGGGTTG | 1 ± 0.032 |
| TTTGTCATGT | 0.976 ± 0.036 |
| TACGATGGTA | 0.9792 ± 0.0049 |
| GAGATAGGGT | 1.03 ± 0.013 |
| TTTTAATGTT | 1 ± 0.046 |
| TGTGCGACCT | 1.16 ± 0.043 |
| GCTCTGGGTA | 1.05 ± 0.0082 |
| TGGATTAGGC | 1.01 ± 0.048 |
| TGGGTCGGGC | 0.9905 ± 0.009 |
| TATTTGTGCT | 0.982 ± 0.011 |
